Experimental data from patent publication US20220041738A1 (SAITAMA MEDICAL UNIVERSITY, published 2022).

Key:
[1] = target: T1, Mouse ALK2-His&Fc (Sino Biological Inc., Cat. #50297-M03H) (mouse, UniProt P37172 21-123); assay: ELISA, antigen coated at 1 µg/ml, hybridoma culture supernatant, ALP anti-rat IgG, O.D.492
T1 construct: Bought product; also called mALK2-Fc; not shown: His tag and Fc of the bought product
T1 sequence: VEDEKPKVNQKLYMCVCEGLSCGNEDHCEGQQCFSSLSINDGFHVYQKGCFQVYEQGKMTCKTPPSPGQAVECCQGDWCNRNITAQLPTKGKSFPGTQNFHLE
Procedure: One week after the cell fusion, using each culture supernatant, clones recognizing mouse ALK2-His&Fc used as the antigen were selected by the enzyme-linked immunosorbent assay (ELISA), and clones recognizing only human Fc (Sino Biological Inc.) were excluded. ELISA was performed as follows.
First, the antigen diluted to 1 μg/ml with PBS was immobilized onto a 96-well ELISA plate (NUNC, Cat. #442404) for 2 hours at room temperature or overnight at 4° C. The immobilized solution was removed, and the plate was blocked with a 0.5% skim milk solution dissolved in PBS for 30 minutes at room temperature. Next, the above-described culture supernatant of hybridomas was added, and the plate was left for 1 hour at room temperature. After the plate was washed, an ALP-labeled anti-rat IgG antibody (SBA, Inc.) diluted with 0.5% skim milk to 1:2500 was added, and the plate was further left for 1 hour at room temperature. After the plate was washed, a phenyl phosphate substrate was reacted for 20 minutes at room temperature, and then absorbance at a wavelength of 492 nm was measured.

[2] = target: T2, human ALK2(R206H)-EGFP on HEK293A cells (human, UniProt Q04771 21-509); assay: flow cytometry on transfected HEK293A cells, Alexa 647 anti-rat IgG (APC-A) against EGFP (FITC-A)
T2 construct: also called hALK2(R206H)-EGFP; FOP human ALK2; not shown: EGFP fused to ALK2
T2 sequence: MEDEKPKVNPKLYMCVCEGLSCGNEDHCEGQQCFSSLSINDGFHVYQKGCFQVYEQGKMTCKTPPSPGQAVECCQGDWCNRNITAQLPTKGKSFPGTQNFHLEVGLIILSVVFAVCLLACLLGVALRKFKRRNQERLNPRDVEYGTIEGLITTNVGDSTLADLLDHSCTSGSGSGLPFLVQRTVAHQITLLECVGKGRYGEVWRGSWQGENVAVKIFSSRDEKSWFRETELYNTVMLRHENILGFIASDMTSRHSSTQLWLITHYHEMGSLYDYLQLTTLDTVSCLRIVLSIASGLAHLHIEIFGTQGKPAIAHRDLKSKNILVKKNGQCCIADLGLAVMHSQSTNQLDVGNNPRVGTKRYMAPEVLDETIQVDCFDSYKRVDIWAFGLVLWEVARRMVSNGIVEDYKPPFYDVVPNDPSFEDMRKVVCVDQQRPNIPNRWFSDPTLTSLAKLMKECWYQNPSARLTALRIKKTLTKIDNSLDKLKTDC
Procedure: (§1) HEK293A cells were seeded into a 100-mm dish at 3×10⁴ cells/cm², and cultured overnight in 15% FBS-containing DMEM medium under the conditions of 5% CO₂ at 37° C. On the following day, the HEK293A cells were transfected with each of pcDEF3/mouse ALK2(WT)-EGFP, pcDEF3/human ALK2(WT)-EGFP, pcDEF3/human ALK2 (R206H)-EGFP, and pcDEF3, using Lipofectamine 2000 (Invitrogen), and further cultured overnight. On the following day, 100 μL each of the cell suspensions adjusted to 1×10⁶ cells/mL was dispensed into a 1.5-mL microfuge and centrifuged at 500 g for 5 minutes, and then the supernatant was removed. To the cells, 100 μL of purified IgG diluted to 1 μg/mL was added, and the cells were left for 30 minutes at 4° C. After the cells were washed with PBS three times, 100 μL of Alexa flour 647 Goat anti-Rat IgG (H+L) (Life Technologies) diluted to 1:200 was added, and the cells were further left for 30 minutes at 4° C. After the cells were washed with PBS three times, fluorescence was detected by a flow cytometer (FACS Aria II: BD Biosciences). The data was analyzed using BD Diva Software (BD Biosciences), and the intensity of EGFP expressed by the cells and the fluorescence intensity of stained Alexa flour 647 were plotted.

[3] = target: T3, human ALK2(WT)-EGFP on cells (human, UniProt Q04771 21-509); assay: as above
T3 construct: also called hALK2(WT)-EGFP; human ALK2-EGFP; not shown: EGFP fused to ALK2
T3 sequence: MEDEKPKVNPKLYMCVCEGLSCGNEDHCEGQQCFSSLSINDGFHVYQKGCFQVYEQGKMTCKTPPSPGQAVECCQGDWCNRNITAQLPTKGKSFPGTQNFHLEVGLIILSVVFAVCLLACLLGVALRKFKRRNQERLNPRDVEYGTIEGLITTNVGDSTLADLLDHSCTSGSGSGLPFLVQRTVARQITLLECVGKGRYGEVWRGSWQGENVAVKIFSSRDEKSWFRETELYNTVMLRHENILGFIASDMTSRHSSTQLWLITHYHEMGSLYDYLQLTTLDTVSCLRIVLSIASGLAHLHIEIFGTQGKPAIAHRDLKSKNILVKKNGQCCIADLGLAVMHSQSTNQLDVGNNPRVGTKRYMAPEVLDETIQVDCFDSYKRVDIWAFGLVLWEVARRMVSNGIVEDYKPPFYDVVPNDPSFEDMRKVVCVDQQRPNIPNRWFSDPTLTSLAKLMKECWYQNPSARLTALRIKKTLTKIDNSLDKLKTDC
Procedure: as §1

Measured: binding result

B1: rat anti-ALK2 monoclonal antibody A2-27D (antibody, V domains shown)
VH: EVQLVESGGGLVQPGRSLKLSCLASGSTFSNYGMKWIRQAPGKGLEWVASISRSSTYIYYADTVKGRFTISRDNARNTLYLQMTSLRSEDTALYYCAAAISTPFYWYFDFWGPGTVVTVSS
VL: EIVLTQSPTTMAASPGEKVTLNCLASSSVSYMTWYQQKSGASPKLWIYGTSNLASGVPNRFSGSGSGTSYSLAISSMEAEDVATYYCLHLTSYPPYTFGAGTKLELKR
notes: Rat monoclonal IgG from a hybridoma; also called 27D11
binds: [1] | [2] | [3]

B2: rat anti-ALK2 monoclonal antibody A2-11E (antibody, V domains shown)
VH: EVQLVETGGGLVQPGRSLKLSCVASGFTFSNYYMYWIRQAPGKGLEWISSINTDGGSTYYPDSVKGRFAISRDNAENTVYLQMNSLRSEDTATYYCAKSTPNIPLAYWGQGTLVTVSS
VL: DIQMTQSPSLLSASVGDRVTLSCKASQNIYKYLNWFQQKLGEAPKLLIYYSNSLQTGIPSRFSGSGSGTDFTLTISSLQPEDVAIYFCFQYSSGPTFGPGTKLELKR
notes: Rat monoclonal IgG from a hybridoma; also called 11E2
binds: [1] | [2] | [3]

B3: rat anti-ALK2 monoclonal antibody A2-15A (antibody, V domains shown)
VH: EVQLVESGGGLVQPGRSLKLSCAASGFTFSHYYMAWVRQAPTKGLEWVASITNSGGSINYRDSVKGRFTISRDNAKSTLYLQMDSLRSEDTATYYCTREGGENYGGYPPFAYWGQGTLVTVSS
VL: DIVLTQSPALAVSLGQRATISCRANQGVSLSRYNLMHWYQQKPGQKPKLLIYRSSNLASGIPARFSGSGSGTDFTLTINPVQADDIATYYCQQSRESPFTFGAGTKLELKR
notes: Rat monoclonal IgG from a hybridoma; also called 15A6
binds: [1] | [2] | [3]

B4: rat anti-ALK2 monoclonal antibody A2-25C (antibody, V domains shown)
VH: EVQLVESGGGLVQPGGSLKLSCAASGFTFSYYAMSWVCQAPTKGLEWVASISRGGDNTYYRDTVKGRFTTSRDNAKNTLYLQMDSLRSEDTATYYCARLNYNNYFDYWGQGVMVTVSS
VL: DIQMTQSPASLSASLEEIVTITCQASQDIGNWLSWYQQKPGKSPQLLIYGATSLADGVPSRFSGSRSGTQYSLKISRLRVEDIGIYYCLQAYSAPFTFGSGTKLEIKR
notes: Rat monoclonal IgG from a hybridoma; also called 25C11
binds: [1] | [2] | [3]
